Measurements as given in the nanobody polyreactivity screen of Harvey et al. (2022).

Assay: yeast display, Sf9 membrane polyspecificity reagent, FACS + sequencing; frameworks hold sequencing errors
Outline: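 Sorting gates, low and high (top ~1%), were placed on anti-HA fluorescence to track expression and on streptavidin fluorescence to track reagent binding. A clone's polyreactivity label is taken from the gate it came out of. The reagent was 10% biotinylated, detergent-solubilized Sf9 membrane, applied for 1 hour at 4 °C to galactose-induced yeast display cells.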

## QVQLVESGGGLVQAGGSLRLSCAASGRTFRYNTMGWYRQAPGTERELVATITGSGGSTYYADSVKGRFTISRDNAKNTVYLQMNSLKPEDTAVYYCNALFRLRAYAEMDYWGQGTQVTVSS
  polyreactivity (PSR sort gate): high polyreactivity

## QVQLVESGGGLVQAGGTLRLSCAASGRIFWAYAMGRYRQAPGKERELVAAITRSGGYTRYADSVKGRFTISRDNAKNTVYLLMNSLKPEDTAVYYCNAYAPRQLYGYDYWGQGSQVTVSS
  polyreactivity (PSR sort gate): high polyreactivity

## QVQLVESGGGLVQAGGSLRLSCAASGRIFRYNAMGLYRQAPGKERELVAAISRSGGSTYYADSVKGRFTISRDNAKNTVYLQMNSLKPEDTAVYYCAVRRDGSGGNLDYWGQGTQVTVSS
  polyreactivity (PSR sort gate): high polyreactivity

## QVQLVESGGGLVQAGGSLRLSCAASGSTFNRYAMGWYRPAPGKERELVASISWGGGRTYYADSVKGRFTISRDNAKNTVDFQLNSLKPEDTAVYFCATDRYDRHYEVDYWGQGTQVTVSS
  polyreactivity (PSR sort gate): low polyreactivity

## QVQLVESGGGLVQAGGSLRLSCAASGFIFYPNPMGWYRQAPGKERELVAAITSGGSTYADSVKGRFTISRDNAKNTVYLQMNSLKPEDTAVYYCAAVDTSIITFWYIASDGFDYWGQGTQVTVSS
  polyreactivity (PSR sort gate): low polyreactivity

## QVQLVESGGVLVQAGGSLRLSCAASGSLFILYALGWYRQEPGKEREFVASISRSGSTYYADSVKGRFTISRDNAKNSVYLQMNSLKPEDTAVYYCAADYRQFYRYVDYEYWGQGTQVTVSS
  polyreactivity (PSR sort gate): low polyreactivity

## QVQLVESGGGLVQAGGSLRLSCAASGFIFHPYAMGWYRQAPGKERELVAAISWSGDGTYYADSVKGRFTISRDNAKNTVYLQMNSLKPEDTAVYYCNAGFYRSYYKSPMGYWGQGTQVTVSS
  polyreactivity (PSR sort gate): low polyreactivity

## QVQLVESGGGLVQAGGSLRLSCAASGSTFRWNTMGWYIQAPGKERELVAAISYSGGITYYADSVKGRFTISRDNAKNTVYLQMNSLKPEDTAVYYCYATRVRGWYVTRYYYWGQGSQVTVSS
  polyreactivity (PSR sort gate): high polyreactivity

## QVQLVESGGGLVQAGGSLRLSCAASGSTLSGNAMGWYRQAPGKERELVAAISWNGGATYYADSVKGRFTISRDNAKNTVYLQMNSQKPEDTAVYYCAAEYIVTYEYWYFGYDYWGQGTQVTVSS
  polyreactivity (PSR sort gate): low polyreactivity

## QVQLVESGGGLVQAGGSLRLSCADSGLTFSVYTMGWYRQAPGKERELVAAITTSGGRTYYADSVKGRFTISRDNAKNTVYLQKNSLKPEDTAVYYCAAVRTGDTTGTMGYWGQGTQVTVSS
  polyreactivity (PSR sort gate): high polyreactivity

## QVQLVESGGGLDQAGGSLRLSCAASGFIFQRYTLGWYRQAPGKERELVAAITSGGRTYYADSVKGRFTISRDNAKNTVYLQMNSLKPEDTAVYYCNARGRASRHSGYDYWGQGTQVTVSS
  polyreactivity (PSR sort gate): high polyreactivity

## QVQLVESGGGLVQAGGSLRLSCAASVRIFWPYAMGWYRQAPGKERELVAAITLSGGSTYYADSVKGRFTISRDNAKNTVYLQKNCMKPVETAVYYSAGDHKRTWGGDQGKSHGYWGQGTKVTVSS
  polyreactivity (PSR sort gate): low polyreactivity

## QVQLVESGGGLVQAGGSLRLSCAASGSILAYNAMGWYRQAPGKERELVAAISWTGRTYYADSVKGRFTISRDNAKNTVYLQMNSLKPEDTAVYYCNARGRQRSRGSQIYDYWGQGSQVTVSS
  polyreactivity (PSR sort gate): high polyreactivity

## QVHLVESGGGLVQAGGSLRLSCAASGRIFGGNVMGWYIQAPGKERELVAAISWSSGSTYYADSVKVLFTISLDNAKNTVYLQMNSQKPDDTSFYYCAADNSFRGYHSPYDYWGQGTQVTVSS
  polyreactivity (PSR sort gate): low polyreactivity

## QVQLVESGGGLVQAGGSLRLSCAASGFTFHNNVMGWYRQAPGKERELVATISKSGGSTYYADSVKGRFTISRDNAKNTVYLQMNSLKPEDTAVYYCAAETPTHDEWGQGTQVTVSS
  polyreactivity (PSR sort gate): high polyreactivity

## QVQLVESGVGLVQAGGSLRLSCAASGRTIKANAMGWYRQAPGKERELVAAISRRGGRTYYADSVKGRFTISRDNAKNTVYLQMNSLKPEDTAVYYCAVRWYSYRQRYNYWGQGTQVTVSS
  polyreactivity (PSR sort gate): high polyreactivity

## HVPLVESGGGLVQAGGSLRLSCAASGSIFVWYVMGWYRQAPGKEWELVAAITWSAARTYYADSVKGRFTISRDNAKITVYLQMNSLKPEDTAVYYGAADPVSYQPSSRIFDYWGQATQVTVSS
  polyreactivity (PSR sort gate): low polyreactivity

## QVQLVESGGGLVQAGGSLRLSCASSGFTFSLYARGWYSQAPGKEMELVAAISQRGGSTYYADSVKGRFTISRDNAKNTDYLQMNSLKPEDTAVYYCNDYAQVSYGTYDYWGQGTQVTVSS
  polyreactivity (PSR sort gate): high polyreactivity

## QFQLVESGGGLDQAGGSLRLSCAASGRIFDGYVMGWYRQAPGKDRELVAAISSSGGRTYYADSVKGRFTISRDNAKNTVYLQMNCLKPDDTAVYYCAARYGRYRSVDYWGQGTQVTVSS
  polyreactivity (PSR sort gate): high polyreactivity

## KVQLVESGVGLVQAGGSLRLSCAPSGSIFKYYAMGWYRQAPGKERELVAAITDRGSSTYYADSVKGRFTISRDNAKTTVYLQMNSLKPEDTAVYYCAAETYVCIYWPYVKYYYWGQGTQVNVSS
  polyreactivity (PSR sort gate): high polyreactivity

## QVHLVDSGGGLVQAGGSLRFSCAASGSIFGWYAMGWYRQAPGTERELVDSIAVTAGSTYYADSVKWRFPISRDKAKNTGYLQLNRLKPEDTALYSCAADDYSADAVQRFYYWGQGSQVTVSS
  polyreactivity (PSR sort gate): low polyreactivity

## QVQLVESGGGLVQAGGSLRLSCAASGLIFFTYAMGWYRQAPGKERELVATISRGGRTKYADSVKGRFTISRDNAKNTVYLQMNSLKPEDTAVSYCAAYLSRSYYAYDYWGQGTQVTVSS
  polyreactivity (PSR sort gate): high polyreactivity

## QVQLVESGGGLVQAGGSLRLSCAASGSIFTSYAMGWYRQAPGKERELVAAIDWSGGTTYYADSVKGRFTISRDNAKNPVYLQMNSLKPEDTAVYNRAADIYKYTVGSYDYWGQGTQVTVSS
  polyreactivity (PSR sort gate): low polyreactivity

## QVQLVESGGGLVQAGGSLRLSCAASGRTFGVYAMGWYRQAPGKERELVASISRSGGSTYYADSVKGRFTISRDNAKNTVYLQMNSLKPEDTAVYYCAAVYKRGMDYWGQGTQVTVSS
  polyreactivity (PSR sort gate): high polyreactivity

## QVQLVESGGGLVQAGGSLRLSCAASGRTFVHYTMGWYRQAPGKERELVAAISGTGTSTYYADSVKGRFTISRDNAKNTVYLQMNSLKPEDTAVYYCARDPFFGFHIGYPRRDYWGQGTQVTVSS
  polyreactivity (PSR sort gate): low polyreactivity

## QVQLVESGGGFVQAGGSLRLICAASGSILHSYSMGWYRQAPGKERELVAAISGSGGSTYYADSVKRRFTISRDNAKNTVYLQMNSLKPEDTAVYYCAAVWSRADRYYYWGQGTQVTVSS
  polyreactivity (PSR sort gate): low polyreactivity

## QVQLVESGGGLVQAGGSLRLSCAASGSTFYIYAMGWYRQAPGKERELVAAITWSGGSTYYADSVKGRFTISRDNAKNTVYLQMNSLKPEDTAVYYCAAQVWYSKSPTVDVYFDYDYWGQGTQVTVSS
  polyreactivity (PSR sort gate): low polyreactivity

## QVQLVESGGRLVQAGGSLSLSCAASGFIFWSYAMGWYRPAPGKERELVAAISARGGSTYYADSVKGRFTISRDNAKNTVYLQMTSLKPEDTAVYYCATYPTYEYDYWGQGTQVTLSS
  polyreactivity (PSR sort gate): high polyreactivity

## QVQLVESGGGLVQAGGSLRLSCAASGRTIYQYAMGWYRQAPGKERELVAAITDNGGRTYYADSVKGRFTISCDNAKNTVYLQMNSLKPEDTAVYYCAAEIWTYSYYVVDNGPYDYWGQGTQVTVSS
  polyreactivity (PSR sort gate): low polyreactivity

## QVQLVESGGGLVQAGGSLRLSCAASGITFADNAMGWYRQAPGKERELVARISRGGRTNYADSVKGRFTISRDNAKNTVYLQMNSLKPEDTAVYYCAADKSSYEYYWGQGTQVTVSS
  polyreactivity (PSR sort gate): high polyreactivity

## QVQLGESGGGLVQAGGSLRLSCAASGRIFSYYAMGWYRPAPGKERELVAAISYRGSSTNYADSVKGRFTISRDNAKNTVYFQMNSLKPEDTAVYYCATKFFRTAYEYWGQGTQVTVSS
  polyreactivity (PSR sort gate): high polyreactivity

## QVQLVESGGGLVQAGGSLRLSCAASGIIFTYYAMGWYRQAPGKERELVAAISYRGGSTYYADSVKGRFTISRDNAKNTVYLQMNSLKPEDTAVYYCNARYFRHYDYWGQGTQVTVSS
  polyreactivity (PSR sort gate): high polyreactivity

## QVQLVESGGGIVQAGGSLRLSCAASGSTFFDNAMGWYRQAPGKERDLVAAISLTDGITYDADSVKGRFTISRDNAKNTVYLQMNSLKPEDTAVYYCNAVYDWSLDQVWDYFEYEYWGQGSQVTVSS
  polyreactivity (PSR sort gate): high polyreactivity

## QVQLVESGGGLVQAGGSLRLSCAASGSIFTPNAMGWYRQAPGKERELVAAISWSGARTYYADSVKGRFTISRDNAKNTVYLQMNSLKPEDTAVYYSYAFGSWGQGTQVTVSS
  polyreactivity (PSR sort gate): high polyreactivity

## QVQLVESGGGLVQAGGSLRLSCAASGSIFKGYDMGWYRQAPGKERELVAAISSGSTNYADSVKGRFTISRDNAKNTVYLQMNSLKPEDTAVYYCNADLGRATFYQRVVIERGGYWGQGTQVTVSS
  polyreactivity (PSR sort gate): low polyreactivity

## QVQLVESGGGLVQAGGSLRLSCAASGSTFYLYAMGWYRQAPWKEREFVARITWSGGSTYYADSVKGRFTISRDNAKNTVYLQMNSLKPEDTAVYYCNATKTGPATVRYYYWGQGTQVTVSS
  polyreactivity (PSR sort gate): high polyreactivity

## QVQLVESGGVLVQAGGSLRLSCAASGITLPVYGMGWYRQAPGKERELVAVIDIVGITNYADSVKGRFTISRDNAKNTVYLQMNSLNPEDTAVYYCAKRYVYIADGGEYYYWGQGTQVTVSS
  polyreactivity (PSR sort gate): low polyreactivity

## QVQLVESGGGLVQAGGSLRLSCTASGRTLYNYTMGWYRQAPGKERELVATINFSGGSTYYADSVKGRFTISRDNAKNTVYLQMNSLKPEDTAVYYCNARGYHYAYKGAYLGDYYWGQGTQVTVSS
  polyreactivity (PSR sort gate): low polyreactivity

## QVQLVESGGGLVQAGGSLRLSCAASGRTFNRNAMGWYRQAPGKERELVAAISWGGSRTYYADSVKGRFTISRDNAKNTVYLQMNSLKPEDTAVYYCAVDGFRGRSHGANDYWGQGTQVTVSS
  polyreactivity (PSR sort gate): high polyreactivity

## QVQLEESGGGLVQAGGSLRLSCAASGRTFGLYAMGWYRQAPGKERELVAAITRSDGGTNYADSVKGRFTISRDNAKNTVYVQMNSLKPEDTSVYYCAVDLGYVSDVSWYAYEYWGQGTQVTVSS
  polyreactivity (PSR sort gate): low polyreactivity

## QVQLVESGGGLVQAGGSLRLSCAASGRTFVLYTMGWYRQAPGKERELLAVGSTYYADSVKGRFTISRDNAKNTVYLQMNSLKPEDTAVYYCAVDLYWSYFNGALGYRYYYWGQGTQVTVSS
  polyreactivity (PSR sort gate): high polyreactivity

## QVQLVESGGGLVQAGGSLRLSCAASGGTFVVYAMGWYRQAPGKERELVAAITWIGDSTYYADSVKGRFTISRDNAKNTVYLQMNSLKPEDTAVHYCNAEGWYYLTEYGYWGQGTQVTVSS
  polyreactivity (PSR sort gate): low polyreactivity

## QVQLEESGGGLVQAGGRLRLSCAASGSTCGTNVMGGARQAPGKERELVAAFSNGGSTNYADSVKGRFTISRDNAKITDYLQMNSLKPEDTAVYYCEFDYWGQGTQVTVSS
  polyreactivity (PSR sort gate): low polyreactivity
